Patent publication US7507716B2, “Method for treating pain with prolactin antagonists” (Board of Regents, The University of Texas System, priority 2005, dated 2009)

Tests used:
[1] = test system: capsaicin-evoked nocifensive behavior; assay: Eye-wipe test (corneal capsaicin); format: in vivo, rat
Protocol: To whether this effect has relevance to capsaicin-induced nociception in the whole animal, corneal wipe tests were performed. In this test, corneal application of capsaicin induces a brief nocifensive behavior in the trigeminal region of awake animals (Price et al., 2004; Neubert et al., 2005; Tender et al., 2005). The cornea is a specialized tissue innervated by trigeminal sensory neurons including TRPV1 positive C-fibers (Guo et al., 1999). Turning to FIG. 8A, the results of immunohistochemical analysis of corneal cryosections from proestrous females reveal the presence of fibers that stain positive for both PRL-R (green) and TRPV1 (red) (FIG. 8A).
In this test, the effect of PRL pretreatment on capsaicin-induced eye wiping in proestrous rats was examined. PRL (1 μg/ul in saline) or vehicle (40 μl) was applied in the cornea immediately followed by application of 0.01% capsaicin or vehicle (40 μl) and the total time spent grooming the injected eye per 5 min bins was measured by observers blinded to treatment allocation. Data are shown as mean±SEM (n=6/group *=p<0.05 and ***=p<0.001; two-way ANOVA). […] Data are shown as mean±SEM (n=6/group; two-way ANOVA). […] Data are shown as mean±SEM (n=6/group, **=p<0.01; two-way ANOVA). The effect of PRL on capsaicin-mediated nocifensive response was assessed next in male rats, in order to determine whether the influence of PRL-signaling on nociception is conserved between gender. Corneal wipe tests were performed on age-matched male rats essentially as described above. Data in FIG. 8E are shown as mean±SEM (n=6/group, **=p<0.01; two-way ANOVA). Unexpectedly, the capsaicin-mediated nocifensive response profile of male rats is strikingly similar to that of proestrus rats (compare FIG. 8E with FIG. 8B) and estradiol-treated OVX rats (compare FIG. 8E with FIG. 8D), and divergent from that found in control OVX rats treated with vehicle.
Eye-Wipe Test OVX female rats, treated with either vehicle or E2 (5μg/day/10 days), or intact female rats in the proestrous reproductive stage were brought to a quiet, temperature controlled (22-25° C.) behavioral laboratory in individual cages where they were allowed to acclimate for at least 2 h. PRL (1 μg/μl) or vehicle was placed directly onto the right eye in a volume of 40 ul followed by application of 0.01% (40 μl) capsaicin solution as described previously (Price et al. 2004). The resulting behavioral response was measured as time spent grooming or wiping the test eye. The observers were blinded to the treatments and the data were collected in 3 bins of 5 min.

TG neurons = assay: Capsaicin-evoked iCGRP release from cultured TG neurons (RIA); format: cell-based, rat; details: PRL 40 nM, capsaicin 50 nM
Protocol: Release of iCGRP from cultured neurons was measured by radioimmunoassay. Data are presented as mean % of vehicle±SEM (n=4/group, *=P<0.05 and **=P<0.01 vs. iCGRP levels of each control group; two-tailed unpaired T test).
Rat trigeminal ganglia (TG) primary cultures: The TG from ovariectomized or intact female rats were quickly removed after decapitation and neuronal cultures were prepared as previously described (Fehrenbacher et al., 2005; Patwardhan et al., 2005). The trypsin treatment was omitted in TG cultures prepared for electrophysiological recording and Ca^2+ imaging. Cells were plated on 24 well Poly-D-Lysine coated plates (for iCGRP experiments), 6 well Poly-D-Lysine plates (for PRL release experiments), Poly-D-Lysine/laminin-coated coverslips (for single cell studies) or 10 cm plates (for phosphorylation experiments), respectively. The TG cultures were maintained at 37° C. and 5% CO2. […] The media were replaced at the end of 24 h and then 48 h later.
CGRP release assay: All culture experiments were performed on day 5 at 37° C. using modified Hanks (Gibco) buffer (10.9 mM HEPES, 4.2 mM sodium bicarbonate, 10 mM dextrose and 0.1% bovine serum albumin were added to 1× Hanks). After two initial washes, a 15 min baseline sample was collected. […]

Molecule	PRL sensitization of capsaicin nocifensive behavior ([1]; OVX female rats treated with estradiol)	PRL sensitization of capsaicin-evoked iCGRP release (TG neurons; OVX TG neurons cultured 5 days with 50 nM estradiol)	PRL sensitization of capsaicin-evoked iCGRP release (TG neurons; OVX TG neurons cultured in the absence of E2)	capsaicin-responsiveness (eye wiping) ([1]; OVX female rats, PRL pretreatment)	capsaicin-mediated nocifensive response ([1]; age-matched male rats, PRL pretreatment)	capsaicin-mediated nocifensive behavior (eye wiping) ([1]; proestrous rats, PRL 1 μg/μl 40 μl on cornea, then 0.01% capsaicin)
C[C@]12CC[C@@H]3c4ccc(O)cc4CC[C@H]3[C@@H]1CC[C@@H]2O [estradiol, 17-β-estradiol]	restores PRL sensitization of capsaicin nocifensive behavior	–	–	–	–	–
PRL: Ovine PRL [oPRL-21, BIO] provided by NHPP; prolactin polypeptide hormone (protein, UniProt P01240 31-229, looked up) Prolactin: TPVCPNGPGNCQVSLRDLFDRAVMVSHYIHNLSSEMFNEFDKRYAQGKGFITMALNSCHTSSLPTPEDKEQAQQTHHEVLMSLILGLLRSWNDPLYHLVTEVRGMKGVPDAILSRAIEIEEENKRLLEGMEMIFGQVIPGAKETEPYPVWSGLPSLQTKDEDARHSAFYNLLHCLRRDSSKIDTYLKLLNCRIIYNNNC	–	significantly restored	no effect was observed	no change in capsaicin-responsiveness was observed	influences nociceptor sensitization in male rats	significantly increases capsaicin-mediated nocifensive behavior
